# Measurements from patent publication US10155985B2, “Evaluation of eosinophilic esophagitis” (CHILDREN'S HOSPITAL MEDICAL CENTER, priority 2004, dated 2018).
# B1: SEQ_ID_#65 (nucleic acid, listed as Homo sapiens)
# DNA: ATGAAGGCCAACTACAGCGCAGAGGAGCGCTTTCTCCTGCTGGGTTTCTCCGACTGGCCTTCCCTGCAGCCGGTCCTCTTCGCCCTTGTCCTCCTGTGCTACCTCCTGACCTTGACGGGCAACTCGGCGCTGGTGCTGCTGGCGGTGCGCGACCCGCGCCTGCACACGCCCATGTACTACTTCCTCTGCCACCTGGCCTTGGTAGACGCGGGCTTCACTACTAGCGTGGTGCCGCCGCTGCTGGCCAACCTGCGCGGACCAGCGCTCTGGCTGCCGCGCAGCCACTGCACGGCCCAGCTGTGCGCATCGCTGGCTCTGGGTTCCGCCGAATGCGTCCTCCTGGCGGTGATGGCTCTGGACCGCGCGGCCGCAGTGTGCCGCCCGCTGCGCTATGCGGGGCTCGTCTCCCCGCGCCTATGTCGCACGCTGGCCAGCGCCTCCTGGCTAAGTGGCCTCACCAACTCGGTTGCGCAAACCGCGCTCCTGGCTGAGCGGCCGCTGTGCGCGCCCCGCCTGCTGGACCACTTCATCTGTGAGCTGCCGGCGTTGCTCAAGCTGGCCTGCGGAGGCGACGGAGACACTACCGAGAACCAGATGTTCGCCGCCCGCGTGGTCATCCTGCTGCTGCCGTTTGCCGTCATCCTGGCCTCCTACGGTGCCGTGGCCCGAGCTGTCTGTTGCATGCGGTTCAGCGGAGGCCGGAGGAGGGCGGTGGGCACGTGTGGGTCCCACCTGACAGCCGTCTGCCTGTTCTACGGCTCGGCCATCTACACCTACCTGCAGCCCGCGCAGCGCTACAACCAGGCACGGGGCAAGTTCGTATCGCTCTTCTACACCGTGGTCACACCTGCTCTCAACCCGCTCATCTACACCCTCAGGAATAAGAAAGTGAAGGGGGCAGCGAGGAGGCTGCTGCGGAGTCTGGGGAGAGGCCAGGCTGGGCAGTGA
# B2: SEQ_ID_#72 (nucleic acid, listed as Homo sapiens)
# DNA: AGCTATTCATTCATTTAATGAATATTTTTAATATCGATGTACATGCCAGATAATGAAGAGGAGGGGTGTTACAGAAGTATACAACAAATTGTATCATTCAGCAATCCTTTATCCTAGTGGGGAAGATGACTATACAGATAATTACAACTTAAGGCCATTTTTTGGATAAGAAACATAAAAGTGGTACAAACAAAAGTTCAAGGAGGCAAAGACCACTTCTTATTCTGGTTATATGGATAGCCTTCATGGAGAAGGCTTCATGACAGTTGGGTTGGGTCTTGAAGATGTCTACAGGTAGAGCCTCAGAAAAAGGAATATGAAACATAGGGAACAGTAGGAGGAGGGCAGCTTTAGTGACTGGCTCGGTTATACTAGAGCATTGGGATTGTAGAGGAGAATCATGATTGATTAAGGCTATATAGGGCAGTTAGGGCCAGATACTGGGGGAATTTGAATATCAGACTGTTATTTGATGAACAGTGGGAGCAGCTGAAGGTTTTTTTTTTTTTTTTAAAAAAAACAACCTTATTAAGGTAGTG
# B3: SEQ_ID_#783 (nucleic acid, listed as Homo sapiens)
# DNA: TATCACGCACAAATTGCAATTACTTCACACTCACGATAACCCATTAATCTGTGAAGGATTAATCTGTTCATGAAGGCAGGGCCCTCATGATGGAATCACATCTTAAAGCCCCTACGTCTGAGTACTGTTACATTGGGGATTTAGTTTTAATATGATTTTCAGAGCAGAAAAACATTCAAACCATAGCAATATGTATTGAATATCTAGATCATTTCCAAATAAGATATTAATATGATACTGAAACATTTATTGCTGAACATAAATTTAGAACTTACTTTGCCTACCTATTACAGAAGAACAAAAGATATTTGGGCCTATTAAACCTTTCCTCTGCCATTTCCTGTCCTGTGTCATAGGACTAGGAATCGTGTTTCTAGAAGGTATGAAATCGTGTGCTTGCAAACTTGGAAGAAAACAGTTCATGACTGCATACCTTCTAGTTCTCTAGTGTTCACTGGAAATTAAAGACACTAAAAGTTAACAATTCTTATTAATTAATCATATTAATGTAATTGGAATTTCTAGAAATATTAGGGGAAGCAACTTTATACGCAAAGCATAACAGAAAAATAAGGTGTATTTTTTCTTTGAAACCTATGAAATATACTGGCCAGGCACGGTGGCTCATGCTTGTAATCCCAGCACTTTGGGAAGCTGAAGCGGTGGATCACCTGAGCTCAGGAGTCCGAGACCAGCTGGCCACATGTTGAACCATGTCTCTACTAAAATACAAAATTAGCAGTCATGTGCGGTGCTGTACCCCAGTACTCGGAGCTGGGGGGAATCGTGACCGGGTGGGTGCTGACCAAACCTGGCCCAGCGGGAAAGAGACTTTAAAACAATGGACCAAACTGCACAAGCTCTGCCACACTTGTCGAACCCGTGGACGCACAAGAAAAGGGCATCTGGACCTGGAATAACGAAACGACACATCT
# B4: SEQ_ID_#787 (nucleic acid, listed as Homo sapiens)
# DNA: TTTGGTACAGAATGAAACCGTTCTCTTTGAAGAACTGCATGTTTCCCCCAGTCATTTTTGTCCTGGGGGAGTCAAGTGTTTTTACGGACCCTTGAAGCTTGAGGACACTCTGGCATCACCCATTGTTGGGGTGACTTTCTGGTGATTATCAGTGAGCAAACTTCAAGGCCAGCTCCGATTAGGAAAATCTGCCAAGTGTGAGTTTCCTTGGAGCTAGGACTGGGCAGAGACCCCTGGTCCTTGGTCCGTAGGGAAGCTGGGGGATTTGGGGGGTAAGTAATGAGATCATGTCTGCAGAGGCCCCCAGCCTCTTGGAAGAAGATTCCGCTGTAATTTCTTGGAAAAAGCCAACTCCTTCCAGCCCTTTCTGCTCACACCATCTCAGTTTTCCTGGCTGG
# B5: S100P (nucleic acid, listed as Homo sapiens)
# DNA: TGAGGCTGCCTTATAAAGCACCAAGAGGCTGCCAGTGGGACATTTTCTCGGCCCTGCCAGCCCCCAGGAGGAAGGTGGGTCTGAATCTAGCACCATGACGGAACTAGAGACAGCCATGGGCATGATCATAGACGTCTTTTCCCGATATTCGGGCAGCGAGGGCAGCACGCAGACCCTGACCAAGGGGGAGCTCAAGGTGCTGATGGAGAAGGAGCTACCAGGCTTCCTGCAGAGTGGAAAAGACAAGGATGCCGTGGATAAATTGCTCAAGGACCTGGACGCCAATGGAGATGCCCAGGTGGACTTCAGTGAGTTCATCGTGTTCGTGGCTGCAATCACGTCTGCCTGTCACAAGTACTTTGAGAAGGCAGGACTCAAATGATGCCCTGGAGATGTCACAGATTCCTGGCAGAGCCATGGTCCCAGGCTTCCCAAAAGTGTTTGTTGGCAATTATTCCCCTAGGCTGAGCCTGCTCATGTACCTCTGATTAATAAATGCTTATGAAATGA
# B6: SEQ_ID_#807 (nucleic acid, listed as Homo sapiens)
# DNA: TTAGCATTTTTAAATTTTATTATGACTTCATTTGTTTAAATATATATATATATATATATATATATATTTATTTATAGCTCTATGTGCCCACCGCCCCCGGCCCCCTCCCCGGCCCCTAGTTTTTCCCCCTGGCTTTCTGTCTAGTGGCTGTGTAGGGCAGAACCGTCTGCGTGCTCTTGTCTGACACTGTCTGGGTGCTGCTGTTCCTCGTGACCCTTCGAGTCTGTTCAGGGGCCAAGGTAGAGCCTGAGTGGCGGCTGGTCAGTGGAGAGCGCCGTGACTTGTAGGGGGCTGGGGAGGGCTTGTGGGGGCCTGCATGGGCCTCTGTATGGGCAGGCTCAGGGGGCAAGCCCACTTCTTCCTCCTCCACCTCCTGCTCACCGTCCCCCTCCTCATCGTC
# B7: SEQ_ID_#808 (nucleic acid, listed as Homo sapiens)
# DNA: TTTCACTATAGAAAACCTTTAATAACAACTTCAGATTTACATGACCCTTCTGGTGCTCAGAACACTATGGATTAACACACACACTGGAAAGATACAGACACAGGAATCTGCTGCATTACCCCAAATGGCAAAGTCTTGACTGGGGCTTCAGCTCCTTTCCCAATCCAAAATTGGCACCTTTTTCCATGGAAATTCAAACTGCATCTCTAAATGATGGGGTACATGAACTGTCTGTTTCAAAAGTATTTAAAAACAAACAGGAAGTACAGCTTCCATTTCATTAAGAAAACACCACCACAAGACATGGTGCAGTATCTACTAGCTTAAAGTTTATCACTCCATTAGGGCTTATTGACAGCAGAAATGTGAATGTAGTAATGTAGAAATAAGGAAGAGAGCACTTAAGAAAAAAACAGTACAGAAGTTTTAGAGTTTTTTAAACTTTAATAATATGCTTGACTAATATAGTCAAAAGTGATATGCACTCGTGAAATTAACCCATTTTCTGAAGTCCAAATTAGCTATTAAAGTCTTTTTTTACCAAAAACATATAAGGATTTAGTACACTATATAGATTACATAGCTTTCCT
# Tested on: EE transcriptome
# Assay: Genome-wide microarray transcript profiling of esophageal biopsies, EE patients vs normal individuals (EE transcriptome)
# Settings: transcript level in esophageal biopsies of EE patients (n=76) compared to normal individuals (n=13); Affymetrix Human Genome U133 plus 2; p<0.01
# Description: Esophageal tissue obtained from patients previously diagnosed with EE was analyzed. Diagnosis was based on analysis of excised tissue from endoscopic biopsy. Tissues from patients with EE, as well as patients not having EE (controls) were subjected to genome-wide microarray transcript profiling (Affymetrix GeneChip). All work was performed at the Core facility at Children's Hospital Medical Center (Cincinnati Ohio).
# Briefly, RNA quality was first assessed using the Agilent bioanaiyzer (Agilent Technologies, Palo Alto Calif.). Only mRNA having a ratio of 28S/18S between 1.3 and 2 were subsequently used. RNA was converted to cDNA with Superscript choice for cDNA synthesis (Invitrogen, Carlsbad Calif.) and subsequently converted to biotinylated cRNA with Enzo High Yield RNA Transcript labeling kit (Enzo Diagnostics, Farmingdale N.Y.). After hybridization to the GeneChip (Affymetrix, Santa Clara Calif.), the chips were automatically washed and stained with streptavidin-phycoerythrin using a fluidics system. The chips were scanned with a Hewlett Packard GeneArray Scanner. Over 30,000 unique genes were screened.
# Levels of gene transcripts were determined from data image files, using algorithms in the Microarray Analysis Suite software (Affymetrix). Levels from chip to chip were compared by global scaling. Each gene was typically represented by a probe set of 16 to 20 probe pairs. Each probe pair consisted of a perfect match oligonucleotide and a mismatch oligonucleotide that contained a one base mismatch at a central position. Two measures of gene expression were used, absolute call and average difference. Absolute call is a qualitative measure in which each gene is assigned a call of present, marginal or absent, based on the hybridization of the RNA to the probe set. Average difference is a quantitative measure of the level of gene expression, calculated by taking the difference between […] of every probe pair and averaging the differences over the entire probe set. Data were normalized and an EE transcriptome gene list was created with results having p<0.01 (Welch t-test with or without false rate discovery) and ≥1.5-fold change.
# For evaluation of EE using clinical and/or physical assessment, biopsy tissues (obtained from the distal esophagus during routine endoscopy) were submerged in formalin for routine pathological analysis with hematoxylin and eosin staining. Diagnosis was established based on the maximum eosinophil count per high power field (hpf) and basal layer expansion according to method known in the art (e.g., established criteria in Rothenberg et al., Pathogenesis and clinical features of eosinophilic esophagitis. J Allergy Clin Immunol 108 (2001) 891; Attwood et al., Esophageal eosinophilia with dysphagia. A distinct clinicopathologic syndrome. Dig Dis Sci 38 (1993)109; Fox et al., Eosinophilic esophagitis: its not just kid's stuff. Gastrointest Endosc 56 (2002) 26, each of which is expressly incorporated by reference herein in its entirety. Normal individuals (NL), n=13, served as a control and were defined as having 0 eosinophils/hpf and no basal layer expansion. Individuals with EE (n=76) were defined as having >24 eosinophils/hpf and extensive basal layer hyperplasia (expansion to about >⅓ of epithelium).
# The data were analyzed by cluster analysis and ordered (standard correlation (A) and distance (B)) using Genespring software. […] Each column represented a separate individual and each line a gene. RNA from each patient was subjected to chip analysis using Affymetrix Human Genome U133 GeneChip plus 2.
row,Molecule,Fold Change
1,B1,4.547
2,B2,4.374

# Same assay, conditions: transcript level in esophageal biopsies of EE patients compared to normal individuals (NL); Affymetrix Human Genome U133 plus 2; p<0.01; >1 up-regulated, <1 down-regulated
row,Molecule,Fold Change
1,B3,1.53
2,B4,1.528
3,B5,1.52
4,B6,1.514
5,B7,1.513
